Experimental data published in patent CN1678347A.

Legend:
[1] = biological target: PSGL-1 (P-选择蛋白糖蛋白配体-1) (human) (UniProt Q14242); assay: FACS competition on ML2 cells, 200ng KPL-1 against IgG Y1-PE
[2] = biological target: PSGL-1 (P-选择蛋白糖蛋白配体-1) (human) (UniProt Q14242); assay: FACS on ML2 cells, KPL-1-PE alone

UniProt Q14242, sequence (Q14242 42-412): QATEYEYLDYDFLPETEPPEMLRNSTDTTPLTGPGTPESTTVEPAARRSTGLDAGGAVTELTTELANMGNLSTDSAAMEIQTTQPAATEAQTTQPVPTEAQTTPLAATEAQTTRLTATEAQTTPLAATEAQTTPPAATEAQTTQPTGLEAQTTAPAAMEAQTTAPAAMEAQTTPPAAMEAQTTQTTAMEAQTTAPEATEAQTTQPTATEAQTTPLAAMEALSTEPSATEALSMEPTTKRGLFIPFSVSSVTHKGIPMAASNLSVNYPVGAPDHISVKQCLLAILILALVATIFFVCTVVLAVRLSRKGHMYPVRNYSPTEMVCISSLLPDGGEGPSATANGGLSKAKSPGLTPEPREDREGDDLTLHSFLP

KPL-1 (商业化供应的抗PSGL1小鼠单克隆抗体) (antibody)
中值 of IgG Y1-PE with competitor (median fluorescence) [1]: 2
抑制百分比 [1]: 100%
中值 (median fluorescence) [2]: 700
